Measurements taken from the supplement of paper PMC12042874.
± gives the uncertainty stated by the source.

test: amyloid nucleation score (Sup35N fusion, yeast selection) (log enrichment); library NNK2; higher = more nucleation; inactive = no reads after selection
Procedure, shortened: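 For the nucleation score, DiMSum gave the log enrichment of output over input reads, centred on the mode score of non-aggregating sequences. Psi-negative yeast expressing Sup35N fused to peptides of 20 random codons were induced with 100 μM copper sulfate for 24 hours and grown 7 days at 30°C on medium lacking adenine and uracil. Input and output plasmid inserts were Illumina-sequenced, and sequences with under 100 input reads were excluded.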

Substance	amyloid nucleation score
GVPALGFGLAGLTVACFAEE	-0.097 ± 0.34
VVSRVECALAWVRNDIEALT	0.343 ± 0.8
TLFSLREGLFNGIWTVSLSW	-1.09 ± 1.1
RSHLSTLEMSTSIGKGNPNY	0.685 ± 0.56
TITNCP	inactive
PWLDIFNVACTSRGSLVWYE	-0.855 ± 1.1
WTCAAFFEMDDRQGIVEIFI	0.644 ± 0.81
YANMVRERINWI	0.198 ± 0.28
GQGKRNVSLSNGGDKFNLDV	4.98 ± 0.1
VDWRNFIGLLNLTDCSDRYH	-0.744 ± 0.34
DIFCLRPYKLPGYTFYYFVY	inactive
VGIFLKSYV	-1.32 ± 1
EHLGIIAIRCAQIHKFLPEL	0.539 ± 0.36
TGHKECVW	0.762 ± 0.47
YVDGFYNGERWRLVLHVWDL	-0.598 ± 0.39
RDIFILSLLDRMSEGTKRIR	3.86 ± 0.076
EVDVIS	-0.885 ± 0.64
GRSGIFCLPCMLCKFY	6 ± 0.064
PSCRWKLHEMSTSSVQFWMK	5.59 ± 0.064
YLFFYNMSRDRSDTWCEHAV	3.5 ± 0.094
MLGHSWHF	inactive
CFIRFSRMGLFLFCLPKNLQ	-1.59 ± 0.53
YTSGMFFMPMQALASETPHA	-0.924 ± 0.61
ACKVYKLAMNIVLGGTGWSD	4.8 ± 0.077
CTFHFVSGHTTTGSR	1 ± 0.66
ILVSMDRLCLWAGTSASGFS	0.278 ± 0.55

Substance	amyloid nucleation score
LLIREMEHLFVEAKVENLRE	0.531 ± 0.33
LGLTYGHHWY	3.12 ± 0.071
NQFNVFFASVVLVVGCICNH	7.622 ± 0.029
DEKIYLVSG	0.472 ± 0.66
PSWHI	-0.193 ± 0.47
LGRCSALGYIRISCTMKGAG	0.21 ± 0.74
ALYETTVPLLVWLGA	0.463 ± 0.24
RCGSHMNLRYISAR	4.398 ± 0.04
GVFSY	-0.967 ± 0.29
LRGYVY	0.228 ± 1
QSSYVATWVTLNLGCYFDWK	0.284 ± 1.1
YMMSRASSVIIEREYK	0.479 ± 0.74
HINMIGWEFSVGYGWQ	4.9 ± 0.061
TLHFKFMVIRRN	-0.254 ± 0.63
KNILGGDSFWFLLYGYHLFI	inactive
VLSSRSEDTGQACEVIICVV	0.693 ± 0.34
CFMLVFSRTCVSMYTIVNPS	4.59 ± 0.11
AVMTRFEDVYDCAVSTCKMG	-0.363 ± 1
YVTFMKGIGLSVFSADIQ	1.83 ± 0.2
FYCCIITYLDMA	6.667 ± 0.026
SHSVRTMFPGGVNPRNIRGY	0.548 ± 0.64
DRFTAGLIFCMLCLGRYVCM	inactive
TELHLTDFWLRIMRQLFRFS	1.61 ± 0.52
HMGLLFKWAYTYRIAWGKLR	-0.451 ± 0.79
VVGFF	inactive
ESGCRHYLCLGATTIVMDS	6.619 ± 0.049

Substance	amyloid nucleation score
RNLCGFGCVTFRSVLL	0.279 ± 0.65
NIFRRLLSIIIVFDQDRRKM	-1.01 ± 1.1
LRFRGV	0.339 ± 0.28
MSHTVITFFVCIVYSFSHCL	1.86 ± 0.3
NLQSTMMLYYCFRVMMLLAW	-0.762 ± 0.38
MGLWLDYDTHCYQNVVFKRT	2.41 ± 0.091
FKCPFSNFFAMDGYY	-0.801 ± 0.55
KWVGQLTVVMWLKCNPFCFE	0.257 ± 0.64
GSWFVPRMSLSWAGSETGPQ	inactive
CDILYLNMFAIFDFFDPVKL	inactive
IFLAWMVPAGFWR	0.56 ± 0.54
YSMIDTNQFF	inactive
PTCGNSPMVRWCSAETFVWG	3.04 ± 0.13
EDRNSAFAWSSH	3.54 ± 0.14
KQIVFSANFDHRGGLVVLRW	3.08 ± 0.073
SASFRGG	-0.935 ± 0.48
CFEMV	-0.886 ± 0.21
VYSPFLICI	0.174 ± 1
WMRFYSYNGIY	-1.26 ± 1.1
WYCSHFISFHLESKF	4.76 ± 0.11
GKHIGSLSEWTMVHHDGARR	1.21 ± 0.32
LNMVFW	inactive
EITFLCSGKSDSDMYVGFAS	2.08 ± 0.072
NDTWR	3.68 ± 0.049
ETFNCNFVWL	4.83 ± 0.1
FVLCT	1.15 ± 0.33

Substance	amyloid nucleation score
CLTSGHL	0.372 ± 0.74
PYILRFRRDLRGFRI	0.449 ± 0.56
IKDLSRGCFSFYW	1.37 ± 0.17
LLSVCFSRARC	1.07 ± 0.23
ICSDFGPNSGYRHQWVCIGV	-0.023 ± 0.45
NWTLYFDNRGRVLNTYSTRY	7.718 ± 0.031
PFVVNVAGLKMSVRV	3.71 ± 0.07
DSFFAEMDNLNSGRTPFKGT	inactive
MQWETSGVLCWSKQFGGDWV	0.864 ± 0.23
SFAYVMCLSG	-0.635 ± 0.55
SYGNDNDGTWWS	0.676 ± 0.57
RVRIYMTWFFTPIIWERWDG	inactive
AITSLYSRSLFLVLTCTVCF	5.683 ± 0.055
LGRIHYNLFYVYV	2.27 ± 0.14
FFDNPMHKTYSGSAARARLS	-0.375 ± 0.24
FFTANPV	0.335 ± 0.64
LRVWYDSSAVDMLNVLMSFP	5.737 ± 0.032
RTDMALALQ	0.973 ± 0.34
YSELMFTEVIYTVYYLTFLR	-0.797 ± 0.76
NCLEIQFWRLSSRYVGKFVM	-0.113 ± 0.32
AVRELVYDLLASKNFWTSNA	0.932 ± 0.2
SDNRENFSRTFCFSVVGNWK	inactive
DGSHLSKTDVK	0.113 ± 0.2
NRYYYISSQGDDMQAGCFHY	-0.963 ± 1.1
AAVFMLQRLDFINRMASASF	3.72 ± 0.055
SNSNTSEWKTG	-0.156 ± 0.79

Substance	amyloid nucleation score
LYGMF	-0.261 ± 0.63
HAGVMLSFNIVVPNFTYSKE	8.448 ± 0.051
NSRNSSYKWFSSSFVHVADF	1.71 ± 0.088
YRQRFVRKARSFYLWVMALP	-0.409 ± 0.45
TDLCCRLSIQLINHVYHSCL	0.351 ± 0.74
FYRNPHR	0.706 ± 0.81
RRICTGFIRLVGYVYYAAHL	-0.29 ± 0.24
SFFNSWTHFGNCWFL	3.85 ± 0.065
KLKRHL	-0.3 ± 0.24
YWSMSVMVNMKFPCGNCWVR	2.24 ± 0.11
NYCYLFLTYCWVQRMSEGFS	2.88 ± 0.098
NRKWIDRLVYKGNNPYHGEV	0.906 ± 0.57
WINPFAQWMNSVQIFK	0.466 ± 0.12
VRTWISDSCSVYWSSRLA	5.06 ± 0.084
DRRGQQVLGPACRGCWFWPD	0.305 ± 1
CYINKVRCMMHLWDHDDTWG	0.734 ± 0.81
LTSSA	-0.315 ± 0.49
LRWDGEDWRWDALWVTSSVC	0.512 ± 0.2
YSMRWFVGGFILGYCVCGQV	6.256 ± 0.037
MLYVVCFCILVFLFHTNRMR	-0.674 ± 0.32
HYYWSALSSAFVNSMIVR	-1.09 ± 0.76
FLVLVTFKFRAQTDFLSSWN	-0.884 ± 0.78
WYVFACLVELYNCGPHGAID	inactive
NSPNCDHASRKLIHR	0.07 ± 0.61
PLVTWHFS	0.413 ± 0.31
